Consider one molecule from US20230049152A1 (Genentech, published 2023).

Assay [1] deals with T1, human CCR8 (human, UniProt P51685 1-355).
T1 construct: the assay field says which; also called hCCR8; huCCR8
The assay can be described thus: flow cytometry, 2 ug/mL mAb, Treg cells of human colorectal dissociated tumor cells. The method, then: The mAbs were evaluated for binding to regulatory T cells (Treg cells or Tregs) by Fluorescence-Activated Cell Sorting (FACS) flow cytometry. Human colorectal dissociated tumor cells (DTC) (Discovery Life Sciences) were thawed according to vendor's protocol. Cells were surface stained with eFluor 780-conjugated Fixable Viability Dye (ThermoFisher Scientific) and 2 ug/mL mAb specific for CCR8, OX40 (positive control), Herceptin (negative control), or anti-hIgG (negative control) for 20 min at 4° C. followed by secondary detection with AF647-conjugated AffiniPure F(ab′)2 Fragment Goat anti-Human IgG, Fcg fragment-specific (Jackson ImmunoResearch) for 10 min at 4° C. Cells were then intracellularly stained using the eBioscience Foxp3/Transcription Factor Staining Buffer Set (ThermoFisher Scientific) according to the manufacturer's protocol. […] Shown in FIG. 1 are mean fluorescent intensity (MFI) values for CD8 T cells (defined as CD45+CD14−CD3+CD8+CD4−) (circles, ◯), conventional CD4 T cells (defined as CD45+CD14−CD3+CD8−CD4+FOXP3−) (squares, □), and Treg cells (defined as CD45+CD14−CD3+CD8−CD4+FOXP3+) (triangles, ▴). Three of the five CCR8 mAb clones specifically stained Treg cells and not conventional CD4 or CD8 T cells and were ranked according to CCR8 MFI, greater than 500 MFI: hu.Ab4.H1L1>hu.Ab5.H1L1>hu.Ab3.H1L1. Upon confirmation that these three CCR8 mAb clones, namely, hu.Ab3.H1L1, hu.Ab4.H1L1, and hu.Ab5.H1L1, also retained human-cyno cross-reactivity (differences less than 5-fold on human and cyno CCR8 CHO cells), these antibodies carried forward for further exploration.
On the technique in general: A flow cytometer gives signals particle by particle.

A further assay concerns the target T2, human CCR2 (human, UniProt P41597 1-374).
T2 construct: whole, on cells; transiently expressed on HEK293 cells
The experiment in a line: flow cytometry, HEK293 with N-term FLAG-tagged human CCR2. From the text:
(§1) FIGS. 4A-4F depicts the binding data of hu.Ab3.H1L1 (FIG. 4A), hu.Ab4.H1L1 (FIG. 4B), and hu.Ab5.H1L1 (FIG. 4C), as well as the commercial anti-CCR8 mAbs murine anti-human CCR8 mAb 433H (BD Biosciences) (FIG. 4D), and murine anti-human CCR8 mAb L263G8 (Biolegend) (FIG. 4E), and the humanized anti-human Yoshida anti-CCR8 mAb (FIG. 4F), to HEK293 cells that were transiently transfected with N-term FLAG-tagged plasmids encoding for human GPCRs (CCR2, CCR3, CCR4, CCR5, CCR8, CXCR4, ACKR2, and ACKR4), hCCR8 constructs, or with a mock construct using transIT X2 (reagent:DNA=3:1).
To confirm the selectivity to CCR8, the binding of hu.Ab3.H1L1, hu.Ab4.H1L1, and hu.Ab5.H1L1, as well as the Yoshida humanized anti-human CCR8, murine anti-human CCR8 mAb L263G8 (Biolegend, Commercial Ab) and murine anti-human CCR8 mAb 433H (BD Biosciences, Commercial Ab), were characterized by flow cytometry on HEK293 cells that were transiently transfected with plasmids encoding for FLAG-tagged other related human GPCRs (CCR2-5, CXCR4, ACKR2, and ACKR4). Cell surface expression of each GPCR was confirmed by staining with an anti-FLAG antibody control. In particular, HEK293 cells were transfected with N-term FLAG-tagged human CCR2, CCR3, CCR4, CCR5, CXCR4, ACKR2, ACKR4, hCCR8 constructs, or with a Mock construct using transIT X2 (reagent:DNA=3:1) for 24 hours, and surface stained with various anti-hCCR8 monoclonal antibodies at 5 ug/ml, or rabbit anti-Flag pAb (Sigma) followed by AF647-anti-hIgG or AF647-anti-RbIgG respectively. Antibodies hu.Ab4.H1L1, and hu.Ab5.H1L1, only stained the hCCR8-containing cells, confirming their specificity to hCCR8. […] Thus, the CCR8 selective hu.Ab4.H1L1 and hu.Ab5.H1L1 antibodies with the best ADCC activities were carried forward.

The next assay addresses T3, human CCR5 (human, UniProt P51681 1-352).
T3 construct: whole, on cells; transiently expressed on HEK293 cells
The experiment in a line: flow cytometry, HEK293 transiently transfected with N-term FLAG-tagged human CCR5, antibody at 5 ug/ml.
Source text: as §1
(§2) To confirm the selectivity to CCR8, the binding of hu.Ab3.H1L1, hu.Ab4.H1L1, and hu.Ab5.H1L1, as well as the Yoshida humanized anti-human CCR8, murine anti-human CCR8 mAb L263G8 (Biolegend, Commercial Ab) and murine anti-human CCR8 mAb 433H (BD Biosciences, Commercial Ab), were characterized by flow cytometry on HEK293 cells that were transiently transfected with plasmids encoding for FLAG-tagged other related human GPCRs (CCR2-5, CXCR4, ACKR2, and ACKR4). Cell surface expression of each GPCR was confirmed by staining with an anti-FLAG antibody control. […]

In the next assay the target is T4, human CCR3 (human, UniProt P51677 1-355).
T4 construct: whole, on cells; transiently expressed on HEK293 cells
T4 sequence (looked up): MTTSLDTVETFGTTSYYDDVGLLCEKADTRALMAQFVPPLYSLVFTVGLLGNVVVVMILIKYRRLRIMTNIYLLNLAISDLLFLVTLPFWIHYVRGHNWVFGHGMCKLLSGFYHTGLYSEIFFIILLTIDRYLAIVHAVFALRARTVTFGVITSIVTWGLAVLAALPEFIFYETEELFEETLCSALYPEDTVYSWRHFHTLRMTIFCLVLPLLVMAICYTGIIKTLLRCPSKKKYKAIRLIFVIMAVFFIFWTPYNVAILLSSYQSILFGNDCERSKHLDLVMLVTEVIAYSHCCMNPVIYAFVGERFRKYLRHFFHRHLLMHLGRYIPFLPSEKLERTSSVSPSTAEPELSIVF
The assay can be described thus: flow cytometry, HEK293 transiently transfected with N-term FLAG-tagged human CCR3, antibody at 5 ug/ml.
Source text: as §1, §2

Another assay addresses T5, human ACKR4 (human, UniProt Q9NPB9 1-350).
T5 construct: whole, on cells; transiently expressed on HEK293 cells
T5 sequence (looked up): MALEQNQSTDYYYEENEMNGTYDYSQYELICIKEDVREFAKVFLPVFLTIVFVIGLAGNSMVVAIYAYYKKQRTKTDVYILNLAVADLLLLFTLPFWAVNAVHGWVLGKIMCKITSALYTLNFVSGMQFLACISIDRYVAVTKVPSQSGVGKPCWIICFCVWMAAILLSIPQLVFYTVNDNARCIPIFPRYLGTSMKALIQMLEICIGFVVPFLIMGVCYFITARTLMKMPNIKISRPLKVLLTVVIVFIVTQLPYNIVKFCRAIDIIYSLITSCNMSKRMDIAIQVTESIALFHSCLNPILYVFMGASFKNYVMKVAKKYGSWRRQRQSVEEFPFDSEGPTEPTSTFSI
The assay can be described thus: flow cytometry, HEK293 transiently transfected with N-term FLAG-tagged human ACKR4, antibody at 5 ug/ml.
Source text: as §1, §2

Assay [2] has as its target T1, human CCR8. The experiment in a line: cell-based or functional assay.
The next assay deals with T6, human CXCR4 (human, UniProt P61073 1-352).
T6 construct: whole, on cells; transiently expressed on HEK293 cells
T6 sequence (P61073 whole entry): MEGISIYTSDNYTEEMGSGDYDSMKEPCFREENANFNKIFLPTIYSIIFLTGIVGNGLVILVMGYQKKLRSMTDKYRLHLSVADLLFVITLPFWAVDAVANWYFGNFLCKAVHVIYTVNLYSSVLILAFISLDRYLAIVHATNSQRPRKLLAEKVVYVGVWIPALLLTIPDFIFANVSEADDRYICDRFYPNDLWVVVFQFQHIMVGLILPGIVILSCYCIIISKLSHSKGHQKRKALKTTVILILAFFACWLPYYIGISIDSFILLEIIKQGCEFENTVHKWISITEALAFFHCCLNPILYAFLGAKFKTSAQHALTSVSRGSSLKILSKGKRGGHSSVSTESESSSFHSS
The experiment in a line: flow cytometry, HEK293 transiently transfected with N-term FLAG-tagged human CXCR4, antibody at 5 ug/ml.
Source text: as §1, §2

The target in a further assay is T7, cyno CCR8 (cynomolgus monkey, UniProt O97665 1-356 (rhesus entry)).
T7 construct: also called cynomolgus monkey CCR8
T7 sequence (O97665 other isoform, or with tags, fused parts or gaps): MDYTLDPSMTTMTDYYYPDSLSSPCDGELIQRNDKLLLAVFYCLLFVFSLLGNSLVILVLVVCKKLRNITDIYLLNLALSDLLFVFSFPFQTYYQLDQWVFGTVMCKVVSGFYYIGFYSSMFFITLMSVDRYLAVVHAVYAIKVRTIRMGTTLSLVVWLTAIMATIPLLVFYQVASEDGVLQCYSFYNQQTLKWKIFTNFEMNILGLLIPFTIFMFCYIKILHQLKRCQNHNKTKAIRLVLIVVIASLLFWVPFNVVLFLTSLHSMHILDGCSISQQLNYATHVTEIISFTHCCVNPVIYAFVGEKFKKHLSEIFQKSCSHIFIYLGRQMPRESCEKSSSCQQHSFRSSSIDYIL
The experiment in a line: flow cytometry on human and cyno CCR8 CHO cells.

T3 sequence (P51681 whole entry): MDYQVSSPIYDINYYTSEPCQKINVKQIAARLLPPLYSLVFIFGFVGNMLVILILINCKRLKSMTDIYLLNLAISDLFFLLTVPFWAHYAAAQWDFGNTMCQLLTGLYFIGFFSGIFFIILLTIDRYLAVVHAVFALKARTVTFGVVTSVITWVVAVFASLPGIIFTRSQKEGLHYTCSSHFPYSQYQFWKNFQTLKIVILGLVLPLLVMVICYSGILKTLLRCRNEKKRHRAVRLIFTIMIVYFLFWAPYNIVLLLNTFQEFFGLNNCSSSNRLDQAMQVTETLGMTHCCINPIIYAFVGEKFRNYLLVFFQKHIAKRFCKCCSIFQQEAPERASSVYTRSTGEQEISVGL
T2 sequence (P41597 whole entry): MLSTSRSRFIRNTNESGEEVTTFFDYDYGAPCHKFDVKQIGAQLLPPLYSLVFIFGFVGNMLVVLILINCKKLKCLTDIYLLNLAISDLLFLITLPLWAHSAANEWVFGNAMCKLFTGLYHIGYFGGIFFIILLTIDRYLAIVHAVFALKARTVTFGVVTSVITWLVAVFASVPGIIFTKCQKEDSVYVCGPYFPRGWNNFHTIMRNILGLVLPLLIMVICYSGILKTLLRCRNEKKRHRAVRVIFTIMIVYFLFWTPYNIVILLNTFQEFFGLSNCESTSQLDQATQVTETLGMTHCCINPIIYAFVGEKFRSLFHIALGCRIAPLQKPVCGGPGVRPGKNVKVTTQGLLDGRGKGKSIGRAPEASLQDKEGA

B1: hu.Ab3.H1L1 (antibody, human IgG1, kappa, V domains shown)
VH: EQQLVESGGGLVQPGGSLRLSCAVSGFSLSSYAMSWVRQAPGKGLEWIGVISASGRIIYATWAKGRFTISKDSAKTSVYLQMNSLRDEDTAVYFCARGVPSYSLVMSDWGPGTTVTVSS
VL: EPVMTQSPATLSVSPGERATLSCQASQSISNALAWYQQKPGQPPRLLIYEVSKVASGVPARFSGSGSGTEFTLTISSLQSEDFAVYYCQSAYYGNSYVWGAFGQGTKVEIKR
notes: humanized, human IgG1
Consider B1, for which the MFI with human CCR8 [1] is > 500 MFI. The binding result with human CCR2 is “no binding (tested: 5 ug/ml)”; in the assay with human CCR5, “binds”; with human CCR3 it was “binds”; in the assay with human ACKR4, “binds”; in the assay with human CXCR4, “binds”; with cyno CCR8 it was “binds”. Also, the “ADCC EC50, NK-92_F158 effector cells, calcein release” value in the assay with human CCR8 [2] was 20 pM.
